# Changes are numbered by the printed parent chain. Like-named read-outs stand apart in the source and are kept apart here.
# B1: 4-A02-FC1-MMAE (4-A02-FC1 coupled to mc-vc-MMAE) (Fc fusion)
# chain: QVQLVESGGGLVQPGGSLSLSCTASETISSTYIMGWHRRSPGKERELVAVISGDGVTHYADFVKGRFVISRDNAKNAVYLKMNFLTPEDTAVYYCYAAGRWNHWGQGTQVTVSSEPKSSDKTHTCPPCPAPEFEGGPSVFLFPPKPKDTLMISRTPEVTCVVVDVSHEDPEVKFNWYVDGVEVHNAKTKPREEQYNSTYRVVSVLTVLHQDWLNGKEYKCKVSNKALPASIEKTISKAKGQPREPQVYTLPPSRDELTKNQVSLTCLVKGFYPSDIAVEWESNGQPENNYKTTPPVLDSDGSFFLYSKLTVDKSRWQQGNVFSCSVMHEALHNHYTQKSLSLSPGK
# modifications: mc-vc-MMAE coupled to cysteine thiols after TCEP reduction; target DAR 4 for the dimer (about 95% DAR4 by HIC); positions not given
# B2: 4-E04-FC1-MMAE (4-E04-FC1 coupled to mc-vc-MMAE) (Fc fusion)
# chain: B1 chain with Q1A, T23A, T27M, H37Y, A60G, V68A, A74V, Y96N, W101R
# modifications: mc-vc-MMAE coupled to cysteine thiols after TCEP reduction; the coupling did not complete and the proportion of coupling products was very low; positions not given
# B3: 4-C05-FC1-MMAE (4-C05-FC1 coupled to mc-vc-MMAE) (Fc fusion)
# chain: QVQLVESGGGLVQPGGSLRLSCAASGFTLDTYAIGWIRQAPGKEREGVSCISSTDGSTYYAASVKGRFTINRDNAKNTVYLQMNSLKPEDTAVYYCAAGPGTDCPLRFDYWGQGIQVTVSSEPKSSDKTHTCPPCPAPEFEGGPSVFLFPPKPKDTLMISRTPEVTCVVVDVSHEDPEVKFNWYVDGVEVHNAKTKPREEQYNSTYRVVSVLTVLHQDWLNGKEYKCKVSNKALPASIEKTISKAKGQPREPQVYTLPPSRDELTKNQVSLTCLVKGFYPSDIAVEWESNGQPENNYKTTPPVLDSDGSFFLYSKLTVDKSRWQQGNVFSCSVMHEALHNHYTQKSLSLSPGK
# modifications: mc-vc-MMAE coupled to cysteine thiols after TCEP reduction; target DAR 4; positions not given
# B4: 5-C12-FC1-MMAE (5-C12-FC1 coupled to mc-vc-MMAE) (Fc fusion)
# chain: QVQLVESGGGLAQAGGSLRLSCAGSGRTFSTDAMGWFRQAPGKEREFVAAINWSGGSTYYADSVKGRFTISRDNAKNTVYLQMNSVKPEDTAVYYCVADSLLALLDGSRGGPGTDSDSWGQGTQVTVSSEPKSSDKTHTCPPCPAPEFEGGPSVFLFPPKPKDTLMISRTPEVTCVVVDVSHEDPEVKFNWYVDGVEVHNAKTKPREEQYNSTYRVVSVLTVLHQDWLNGKEYKCKVSNKALPASIEKTISKAKGQPREPQVYTLPPSRDELTKNQVSLTCLVKGFYPSDIAVEWESNGQPENNYKTTPPVLDSDGSFFLYSKLTVDKSRWQQGNVFSCSVMHEALHNHYTQKSLSLSPGK
# modifications: mc-vc-MMAE coupled to cysteine thiols after TCEP reduction; DAR4 about 66.2% and DAR2 about 21.9% by HIC; positions not given
# B5: 4-A02-ABD-MMAE (4-A02-ABD coupled to mc-vc-MMAE) (other)
# chain: QVQLVESGGGLVQPGGSLSLSCTASETISSTYIMGWHRRSPGKERELVAVISGDGVTHYADFVKGRFVISRDNAKNAVYLKMNFLTPEDTAVYYCYAAGRWNHWGQGTQVTVSSGGGGSGGGGSGGGGSQHDEAVDANSLAEAKVLANRELDKYGVSDYYKNLINNAKTVEGVKALIDEILAALPAAACAAAHHHHHH
# modifications: mc-vc-MMAE coupled to a cysteine thiol after TCEP reduction; DAR 1; position not stated
# B6: 4-A02-FC1-DXd (4-A02-FC1 coupled to GGFG-DXd) (Fc fusion)
# chain: B1 chain
# modifications: GGFG-DXd coupled to cysteine thiols after TCEP reduction; DAR 4; positions not given
# B7: F1-A01-FC1-MMAE (F1-A01-FC1 coupled to mc-vc-MMAE) (Fc fusion)
# chain: EVQLVESGGGLVQAGGSLRLSCAASGRAFSAYAMGWFRQAPGKEREFVAAISWSGGSTYYADSVRGRFTISRDNTKNTVYLQMNSLKPEDTAVYYCNADSLLSLLDGSRGGPGTDSGSWGQGTQVTVSSEPKSSDKTHTCPPCPAPEFEGGPSVFLFPPKPKDTLMISRTPEVTCVVVDVSHEDPEVKFNWYVDGVEVHNAKTKPREEQYNSTYRVVSVLTVLHQDWLNGKEYKCKVSNKALPASIEKTISKAKGQPREPQVYTLPPSRDELTKNQVSLTCLVKGFYPSDIAVEWESNGQPENNYKTTPPVLDSDGSFFLYSKLTVDKSRWQQGNVFSCSVMHEALHNHYTQKSLSLSPGK
# modifications: mc-vc-MMAE coupled to cysteine thiols after TCEP reduction; target DAR 4 (about 91% DAR4 by HIC); positions not given
# B8: 4-C08-FC1-MMAE (4-C08-FC1 coupled to mc-vc-MMAE) (Fc fusion)
# chain: DVQLVESGGGLVQPGGSLRLSCAVSGFSLSSYDMNWYRQGPGKEREWVANIHSSGGYPDYADAVKGRFTISRDNAKNMVYLQMNSLKPEDTAVYYCNLPPSRRWYKDYWGQGTQVTVSSEPKSSDKTHTCPPCPAPEFEGGPSVFLFPPKPKDTLMISRTPEVTCVVVDVSHEDPEVKFNWYVDGVEVHNAKTKPREEQYNSTYRVVSVLTVLHQDWLNGKEYKCKVSNKALPASIEKTISKAKGQPREPQVYTLPPSRDELTKNQVSLTCLVKGFYPSDIAVEWESNGQPENNYKTTPPVLDSDGSFFLYSKLTVDKSRWQQGNVFSCSVMHEALHNHYTQKSLSLSPGK
# modifications: mc-vc-MMAE coupled to cysteine thiols after TCEP reduction; DAR4 about 41.8% and DAR2 about 42.7% by HIC; positions not given
# B9: 4-A02-FC1 (chimeric nanobody: 4-A02 VHH fused with human Fc mutant fragment FC1) (Fc fusion)
# chain: B1 chain
# notes: VHH-Fc fusion expressed in HEK293; also called chimeric antibody 4-A02
# B10: 4-E04-FC1 (chimeric nanobody: 4-E04 VHH fused with human Fc mutant fragment FC1) (Fc fusion)
# chain: B1 chain with Q1A, T23A, T27M, H37Y, A60G, V68A, A74V, Y96N, W101R
# notes: built from the VHH and FC1
# B11: 4-C05-FC1 (chimeric nanobody: 4-C05 VHH fused with human Fc mutant fragment FC1) (Fc fusion)
# chain: B3 chain
# notes: built from the VHH and FC1
# B12: 5-C12-FC1 (chimeric nanobody: 5-C12 VHH fused with human Fc mutant fragment FC1) (Fc fusion)
# chain: B4 chain
# notes: built from the VHH and FC1
# B13: 5-H3-FC1 (chimeric nanobody: 5-H3 VHH fused with human Fc mutant fragment FC1) (Fc fusion)
# chain: QVQLVESGGGLVQPGGSLRLSCVASGFTLANYAIGFYRRAPGKGREGVSCISRSDGDTYHVDSVKGRFTVSRDNAKNTAYLQMNSLVPEDTGVYYCRATEWCGVQDPHGYWGQGTQVTVSSEPKSSDKTHTCPPCPAPEFEGGPSVFLFPPKPKDTLMISRTPEVTCVVVDVSHEDPEVKFNWYVDGVEVHNAKTKPREEQYNSTYRVVSVLTVLHQDWLNGKEYKCKVSNKALPASIEKTISKAKGQPREPQVYTLPPSRDELTKNQVSLTCLVKGFYPSDIAVEWESNGQPENNYKTTPPVLDSDGSFFLYSKLTVDKSRWQQGNVFSCSVMHEALHNHYTQKSLSLSPGK
# notes: built from the VHH and FC1
# B14: 4-C08-FC1 (chimeric nanobody: 4-C08 VHH fused with human Fc mutant fragment FC1) (Fc fusion)
# chain: B8 chain
# notes: built from the VHH and FC1
# Columns and labels:
# [1] = molecular target: T1, TF on the surface of tumor cells (MDA-MB-231, HPAF-II, HCC1806, BxPC3, HCC44, PC9, H1975 and other … (UniProt P13726 33-295, limits assumed)); assay: cell-based or functional assay
# [2] = molecular target: T1, TF on the surface of tumor cells …; assay: cell-based or functional assay; remark: listed apart in the source
# [3] = molecular target: T1, TF on the surface of tumor cells …; assay: flow cytometry on MDA-MB-231 cells, PE-labeled secondary antibody
# [4] = molecular target: T2, human TF extracellular domain protein (TF-ECD, Met 1-Glu 251) (human, UniProt P13726 33-251); assay: ForteBio OCTET R2; His-tagged antigen on NTA sensor, nanobody-Fc 25-1.56 nM in solution, 25°C
# T2 construct: range 1-251; also called human TF-ECD; not shown: His tag (protein captured on an NTA sensor as 'FDYKSD-01-His')
Binder,"Cell proliferation inhibition IC50, BxPC3 cells (MTS) [1]","Cell proliferation inhibition IC50, HCC1806 cells (MTS) [1]","Cell proliferation inhibition IC50, HPAF-II cells (MTS) [1]",EC50 [3],Kd [4],also measured
B1,0.1 ng/mL,0.1 ng/mL,0.7 ng/mL,,,"Cell proliferation inhibition IC50, BxPC3 cells (MTS) [2]: 0.8 ng/mL; Cell proliferation inhibition IC50, H1975 cells (MTS) [2]: 2.2 ng/mL; Cell proliferation inhibition IC50, HCC44 cells (MTS) [2]: 2.2 ng/mL; Cell proliferation inhibition IC50, HPAF-II cells (MTS) [2]: 0.2 ng/mL; Cell proliferation inhibition IC50, PC9 cells (MTS) [2]: 0.4 ng/mL"
B2,28.8 ng/mL,32.6 ng/mL,24.3 ng/mL,,,
B3,8.6 ng/mL,14 ng/mL,7.7 ng/mL,,,
B4,5 ng/mL,26 ng/mL,12 ng/mL,,,
B5,,,,,,"Cell proliferation inhibition IC50, BxPC3 cells (MTS) [2]: 0.3 ng/mL; Cell proliferation inhibition IC50, H1975 cells (MTS) [2]: 163 ng/mL; Cell proliferation inhibition IC50, HCC44 cells (MTS) [2]: 79.4 ng/mL; Cell proliferation inhibition IC50, HPAF-II cells (MTS) [2]: 1.3 ng/mL; Cell proliferation inhibition IC50, PC9 cells (MTS) [2]: 5 ng/mL"
B6,,,,,,"Cell proliferation inhibition IC50, BxPC3 cells (MTS) [2]: 2.5 ng/mL; Cell proliferation inhibition IC50, H1975 cells (MTS) [2]: > 15000 ng/mL; Cell proliferation inhibition IC50, HCC44 cells (MTS) [2]: 19.1 ng/mL; Cell proliferation inhibition IC50, HPAF-II cells (MTS) [2]: 2.4 ng/mL; Cell proliferation inhibition IC50, PC9 cells (MTS) [2]: 5630 ng/mL"
B7,1.2 ng/mL,4 ng/mL,0.7 ng/mL,,,
B8,0.7 ng/mL,0.5 ng/mL,1 ng/mL,,,
B9,,,,80 ng/mL,2.09 nM,
B10,,,,130 ng/mL,7.04 nM,
B11,,,,700 ng/mL,0.2 nM,
B12,,,,470 ng/mL,0.001 nM,
B13,,,,250 ng/mL,0.45 nM,
B14,,,,50 ng/mL,,
